Reference: article doi:10.1101/2024.05.23.595592

Target: TREM2 R77D, biotinylated (human) (UniProt Q9NZC2)
Assay: BLI

Sequence of TREM2 R77D, biotinylated (human) (Q9NZC2 19-230 R77D): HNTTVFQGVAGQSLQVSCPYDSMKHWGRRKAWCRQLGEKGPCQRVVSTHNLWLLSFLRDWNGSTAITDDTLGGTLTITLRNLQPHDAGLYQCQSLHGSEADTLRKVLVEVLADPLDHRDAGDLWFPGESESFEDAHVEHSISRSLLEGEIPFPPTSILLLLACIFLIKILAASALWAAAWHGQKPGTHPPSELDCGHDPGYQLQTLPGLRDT

B1: Human IL-34 (19-241) (ligand)
chain: LGNEPLEMWPLTQNEECTVTGFLRDKLQYRSRLQYMKHYFPINYKISVPYEGVFRIANVTRLQRAQVSERELRYLWVLVSLSATESVQDVLLEGHPSWKYLQEVETLLLNVQQGLTDVEVSPKVESVLSLLNAPGPNLKLVRPKALLDNCFRVMELLYCSCCKQSSVLNWQDCEVPSPQSCSPEPSLQYAATQLYPPPPWSPSSPPHSTGSVRPVRAQGEGLL
**Q.** Which Kd does the source give for B1 here?
**A.** The Kd was 114 nM.
